This passage reports IC50 results from US20140087995A1 (published 2014).

By IC50 is commonly meant the concentration at which inhibition is half-maximal.

T1: human amylin receptor (amylin 3(a) receptor: human calcitonin receptor with RAMP-3) (human, UniProt P30988 25-474; O60896 24-148)
T1 construct: whole, on cells; also called hAmylin-R; hAmylinR
T1 sequence (looked up) 1: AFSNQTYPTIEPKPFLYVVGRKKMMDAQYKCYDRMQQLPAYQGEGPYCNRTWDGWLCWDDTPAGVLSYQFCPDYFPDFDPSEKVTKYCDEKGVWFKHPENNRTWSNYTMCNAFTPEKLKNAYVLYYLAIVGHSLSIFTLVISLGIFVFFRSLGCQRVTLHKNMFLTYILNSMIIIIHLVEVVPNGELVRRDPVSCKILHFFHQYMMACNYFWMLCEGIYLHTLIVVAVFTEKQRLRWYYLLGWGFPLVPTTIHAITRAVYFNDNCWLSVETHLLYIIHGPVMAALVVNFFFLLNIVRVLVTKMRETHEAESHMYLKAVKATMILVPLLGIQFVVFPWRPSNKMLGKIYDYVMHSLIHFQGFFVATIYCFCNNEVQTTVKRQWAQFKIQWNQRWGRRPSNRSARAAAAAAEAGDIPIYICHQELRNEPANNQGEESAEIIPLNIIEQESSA
T1 sequence (looked up) 2: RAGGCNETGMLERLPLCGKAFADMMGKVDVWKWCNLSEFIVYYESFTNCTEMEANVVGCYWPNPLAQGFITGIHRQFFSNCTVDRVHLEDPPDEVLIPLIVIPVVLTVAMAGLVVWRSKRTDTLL

B1: N^ε1-[2-[2-[2-[[(4S)-4-carboxy-4-(19-carboxynonadecanoylamino)butanoyl]amino]ethoxy]ethoxy]acetyl]-[His14,Arg17,Pro21,Pro27,Pro34]-h-amylin (peptide)
peptide: K([AEEA-γGlu-C20 diacid])CNTATCATQRLAHFLRHSSPNFGAIPSSTNVGPNTY-NH2
modifications: disulfide 2-7; N-terminus assumed
SMILES: CC[C@H](C)[C@H](NC(=O)[C@H](C)NC(=O)CNC(=O)[C@H](Cc1ccccc1)NC(=O)[C@H](CC(N)=O)NC(=O)[C@@H]1CCCN1C(=O)[C@H](CO)NC(=O)[C@H](CO)NC(=O)[C@H](Cc1c[nH]cn1)NC(=O)[C@H](CCCNC(=N)N)NC(=O)[C@H](CC(C)C)NC(=O)[C@H](Cc1ccccc1)NC(=O)[C@H](Cc1c[nH]cn1)NC(=O)[C@H](C)NC(=O)[C@H](CC(C)C)NC(=O)[C@H](CCCNC(=N)N)NC(=O)[C@H](CCC(N)=O)NC(=O)[C@@H](NC(=O)[C@H](C)NC(=O)[C@@H]1CSSC[C@H](NC(=O)[C@@H](N)CCCCNC(=O)COCCOCCNC(=O)CC[C@H](NC(=O)CCCCCCCCCCCCCCCCCCC(=O)O)C(=O)O)C(=O)N[C@@H](CC(N)=O)C(=O)N[C@@H]([C@@H](C)O)C(=O)N[C@@H](C)C(=O)N[C@@H]([C@@H](C)O)C(=O)N1)[C@@H](C)O)C(=O)N1CCC[C@H]1C(=O)N[C@@H](CO)C(=O)N[C@@H](CO)C(=O)N[C@H](C(=O)N[C@@H](CC(N)=O)C(=O)N[C@H](C(=O)NCC(=O)N1CCC[C@H]1C(=O)N[C@@H](CC(N)=O)C(=O)N[C@H](C(=O)N[C@@H](Cc1ccc(O)cc1)C(N)=O)[C@@H](C)O)C(C)C)[C@@H](C)O
notes: also called 68; compound 68
B2: N^ε1-[(4S)-4-carboxy-4-(19-carboxynonadecanoylamino)butanoyl]-[Ala14,Arg17,Pro21,Pro27,His34]-h-amylin (peptide)
peptide: K([γGlu-C20 diacid])CNTATCATQRLAAFLRHSSPNFGAIPSSTNVGHNTY-NH2
modifications: disulfide 2-7; N-terminus assumed
SMILES: CC[C@H](C)[C@H](NC(=O)[C@H](C)NC(=O)CNC(=O)[C@H](Cc1ccccc1)NC(=O)[C@H](CC(N)=O)NC(=O)[C@@H]1CCCN1C(=O)[C@H](CO)NC(=O)[C@H](CO)NC(=O)[C@H](Cc1c[nH]cn1)NC(=O)[C@H](CCCNC(=N)N)NC(=O)[C@H](CC(C)C)NC(=O)[C@H](Cc1ccccc1)NC(=O)[C@H](C)NC(=O)[C@H](C)NC(=O)[C@H](CC(C)C)NC(=O)[C@H](CCCNC(=N)N)NC(=O)[C@H](CCC(N)=O)NC(=O)[C@@H](NC(=O)[C@H](C)NC(=O)[C@@H]1CSSC[C@H](NC(=O)[C@@H](N)CCCCNC(=O)CC[C@H](NC(=O)CCCCCCCCCCCCCCCCCCC(=O)O)C(=O)O)C(=O)N[C@@H](CC(N)=O)C(=O)N[C@@H]([C@@H](C)O)C(=O)N[C@@H](C)C(=O)N[C@@H]([C@@H](C)O)C(=O)N1)[C@@H](C)O)C(=O)N1CCC[C@H]1C(=O)N[C@@H](CO)C(=O)N[C@@H](CO)C(=O)N[C@H](C(=O)N[C@@H](CC(N)=O)C(=O)N[C@H](C(=O)NCC(=O)N[C@@H](Cc1c[nH]cn1)C(=O)N[C@@H](CC(N)=O)C(=O)N[C@H](C(=O)N[C@@H](Cc1ccc(O)cc1)C(N)=O)[C@@H](C)O)C(C)C)[C@@H](C)O
notes: also called 93; compound 93
B3: N^ε1-[2-[2-[2-[[(4S)-4-carboxy-4-(19-carboxynonadecanoylamino)butanoyl]amino]ethoxy]ethoxy]acetyl]-[His14,Arg17,Pro21,Pro27]-h-amylin (peptide)
peptide: K([AEEA-γGlu-C20 diacid])CNTATCATQRLAHFLRHSSPNFGAIPSSTNVGSNTY-NH2
modifications: disulfide 2-7; N-terminus assumed
SMILES: CC[C@H](C)[C@H](NC(=O)[C@H](C)NC(=O)CNC(=O)[C@H](Cc1ccccc1)NC(=O)[C@H](CC(N)=O)NC(=O)[C@@H]1CCCN1C(=O)[C@H](CO)NC(=O)[C@H](CO)NC(=O)[C@H](Cc1c[nH]cn1)NC(=O)[C@H](CCCNC(=N)N)NC(=O)[C@H](CC(C)C)NC(=O)[C@H](Cc1ccccc1)NC(=O)[C@H](Cc1c[nH]cn1)NC(=O)[C@H](C)NC(=O)[C@H](CC(C)C)NC(=O)[C@H](CCCNC(=N)N)NC(=O)[C@H](CCC(N)=O)NC(=O)[C@@H](NC(=O)[C@H](C)NC(=O)[C@@H]1CSSC[C@H](NC(=O)[C@@H](N)CCCCNC(=O)COCCOCCNC(=O)CC[C@H](NC(=O)CCCCCCCCCCCCCCCCCCC(=O)O)C(=O)O)C(=O)N[C@@H](CC(N)=O)C(=O)N[C@@H]([C@@H](C)O)C(=O)N[C@@H](C)C(=O)N[C@@H]([C@@H](C)O)C(=O)N1)[C@@H](C)O)C(=O)N1CCC[C@H]1C(=O)N[C@@H](CO)C(=O)N[C@@H](CO)C(=O)N[C@H](C(=O)N[C@@H](CC(N)=O)C(=O)N[C@H](C(=O)NCC(=O)N[C@@H](CO)C(=O)N[C@@H](CC(N)=O)C(=O)N[C@H](C(=O)N[C@@H](Cc1ccc(O)cc1)C(N)=O)[C@@H](C)O)C(C)C)[C@@H](C)O
notes: also called 69; compound 69
B4: N^ε1-[2-[2-[2-[[(4S)-4-carboxy-4-(19-carboxynonadecanoylamino)butanoyl]amino]ethoxy]ethoxy]acetyl]-[Thr14,Arg17,Pro21,Pro27,Pro31]-h-amylin (peptide)
peptide: K([AEEA-γGlu-C20 diacid])CNTATCATQRLATFLRHSSPNFGAIPSSTPVGSNTY-NH2
modifications: disulfide 2-7; N-terminus assumed
SMILES: CC[C@H](C)[C@H](NC(=O)[C@H](C)NC(=O)CNC(=O)[C@H](Cc1ccccc1)NC(=O)[C@H](CC(N)=O)NC(=O)[C@@H]1CCCN1C(=O)[C@H](CO)NC(=O)[C@H](CO)NC(=O)[C@H](Cc1c[nH]cn1)NC(=O)[C@H](CCCNC(=N)N)NC(=O)[C@H](CC(C)C)NC(=O)[C@H](Cc1ccccc1)NC(=O)[C@@H](NC(=O)[C@H](C)NC(=O)[C@H](CC(C)C)NC(=O)[C@H](CCCNC(=N)N)NC(=O)[C@H](CCC(N)=O)NC(=O)[C@@H](NC(=O)[C@H](C)NC(=O)[C@@H]1CSSC[C@H](NC(=O)[C@@H](N)CCCCNC(=O)COCCOCCNC(=O)CC[C@H](NC(=O)CCCCCCCCCCCCCCCCCCC(=O)O)C(=O)O)C(=O)N[C@@H](CC(N)=O)C(=O)N[C@@H]([C@@H](C)O)C(=O)N[C@@H](C)C(=O)N[C@@H]([C@@H](C)O)C(=O)N1)[C@@H](C)O)[C@@H](C)O)C(=O)N1CCC[C@H]1C(=O)N[C@@H](CO)C(=O)N[C@@H](CO)C(=O)N[C@H](C(=O)N1CCC[C@H]1C(=O)N[C@H](C(=O)NCC(=O)N[C@@H](CO)C(=O)N[C@@H](CC(N)=O)C(=O)N[C@H](C(=O)N[C@@H](Cc1ccc(O)cc1)C(N)=O)[C@@H](C)O)C(C)C)[C@@H](C)O
notes: also called 75; compound 75
B5: N^ε1-[2-[2-[2-[[(4S)-4-carboxy-4-(19-carboxynonadecanoylamino)butanoyl]amino]ethoxy]ethoxy]acetyl]-[Ser14,Arg17,Pro21,Pro27,Pro31]-h-amylin (peptide)
peptide: K([AEEA-γGlu-C20 diacid])CNTATCATQRLASFLRHSSPNFGAIPSSTPVGSNTY-NH2
modifications: disulfide 2-7; N-terminus assumed
SMILES: CC[C@H](C)[C@H](NC(=O)[C@H](C)NC(=O)CNC(=O)[C@H](Cc1ccccc1)NC(=O)[C@H](CC(N)=O)NC(=O)[C@@H]1CCCN1C(=O)[C@H](CO)NC(=O)[C@H](CO)NC(=O)[C@H](Cc1c[nH]cn1)NC(=O)[C@H](CCCNC(=N)N)NC(=O)[C@H](CC(C)C)NC(=O)[C@H](Cc1ccccc1)NC(=O)[C@H](CO)NC(=O)[C@H](C)NC(=O)[C@H](CC(C)C)NC(=O)[C@H](CCCNC(=N)N)NC(=O)[C@H](CCC(N)=O)NC(=O)[C@@H](NC(=O)[C@H](C)NC(=O)[C@@H]1CSSC[C@H](NC(=O)[C@@H](N)CCCCNC(=O)COCCOCCNC(=O)CC[C@H](NC(=O)CCCCCCCCCCCCCCCCCCC(=O)O)C(=O)O)C(=O)N[C@@H](CC(N)=O)C(=O)N[C@@H]([C@@H](C)O)C(=O)N[C@@H](C)C(=O)N[C@@H]([C@@H](C)O)C(=O)N1)[C@@H](C)O)C(=O)N1CCC[C@H]1C(=O)N[C@@H](CO)C(=O)N[C@@H](CO)C(=O)N[C@H](C(=O)N1CCC[C@H]1C(=O)N[C@H](C(=O)NCC(=O)N[C@@H](CO)C(=O)N[C@@H](CC(N)=O)C(=O)N[C@H](C(=O)N[C@@H](Cc1ccc(O)cc1)C(N)=O)[C@@H](C)O)C(C)C)[C@@H](C)O
notes: also called 73; compound 73
B6: N^ε1-[2-[2-[2-[[(4S)-4-carboxy-4-(19-carboxynonadecanoylamino)butanoyl]amino]ethoxy]ethoxy]acetyl]-[Lys14,Arg17,Pro21,Pro27,Pro31]-h-amylin (peptide)
peptide: K([AEEA-γGlu-C20 diacid])CNTATCATQRLAKFLRHSSPNFGAIPSSTPVGSNTY-NH2
modifications: disulfide 2-7; N-terminus assumed
SMILES: CC[C@H](C)[C@H](NC(=O)[C@H](C)NC(=O)CNC(=O)[C@H](Cc1ccccc1)NC(=O)[C@H](CC(N)=O)NC(=O)[C@@H]1CCCN1C(=O)[C@H](CO)NC(=O)[C@H](CO)NC(=O)[C@H](Cc1c[nH]cn1)NC(=O)[C@H](CCCNC(=N)N)NC(=O)[C@H](CC(C)C)NC(=O)[C@H](Cc1ccccc1)NC(=O)[C@H](CCCCN)NC(=O)[C@H](C)NC(=O)[C@H](CC(C)C)NC(=O)[C@H](CCCNC(=N)N)NC(=O)[C@H](CCC(N)=O)NC(=O)[C@@H](NC(=O)[C@H](C)NC(=O)[C@@H]1CSSC[C@H](NC(=O)[C@@H](N)CCCCNC(=O)COCCOCCNC(=O)CC[C@H](NC(=O)CCCCCCCCCCCCCCCCCCC(=O)O)C(=O)O)C(=O)N[C@@H](CC(N)=O)C(=O)N[C@@H]([C@@H](C)O)C(=O)N[C@@H](C)C(=O)N[C@@H]([C@@H](C)O)C(=O)N1)[C@@H](C)O)C(=O)N1CCC[C@H]1C(=O)N[C@@H](CO)C(=O)N[C@@H](CO)C(=O)N[C@H](C(=O)N1CCC[C@H]1C(=O)N[C@H](C(=O)NCC(=O)N[C@@H](CO)C(=O)N[C@@H](CC(N)=O)C(=O)N[C@H](C(=O)N[C@@H](Cc1ccc(O)cc1)C(N)=O)[C@@H](C)O)C(C)C)[C@@H](C)O
notes: also called 74; compound 74

Numbered stars: 1 amine (or outer) side, 2 acyl side, 3 side chain; on linkers, the order of the positions; unused ones are H or OH. Bridge positions count the residues as written; N and C are the ends. Side chains are listed from the residue outwards. Ends that are not written are not given here. * marks the point of attachment. C20 diacid = O=C(O)CCCCCCCCCCCCCCCCCCC(=O)*; γGlu = O=C(O)[C@H](CCC(=O)[*:2])N[*:1]; AEEA = NCCOCCOCC(=O)O

In this assay the target is T1, human amylin receptor (amylin 3(a) …). In words: SPA displacement of 125I-rat amylin, hAmylin 3(a) receptor membranes. The essentials:
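SPA beads + BHK amylin 3(a)/CRE-luc membranes, 35 ng/μL final; buffer 50 mM Hepes pH 7.4, 1 mM CaCl2, 5 mM MgCl₂, 0.1% OA, 0.02% Tween20. 120 min, 25° C, shaken; scintillation count. IC₅₀ by one-site binding competition fit, taken as receptor affinity.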
A general note: In a radioligand displacement assay an active substance lowers the binding of a labelled ligand.
Turning to B1, the IC50 amounted to 0.088 nM.

On to B2, for which the IC50 came to 0.176 nM.

As for B3, the IC50 came out at 0.133 nM. The value for B4 was 0.666 nM; that for B5 was 0.104 nM.

On to B6, for which the IC50 stood at 0.791 nM.
